# Test results: patent publication US12145987B2, “Method for depleting cytotoxic T cells using an anti-LAG-3 antibody composition” (Daiichi Sankyo Company, Limited, priority 2017, dated 2024)
# T1: human PHA blasts expressing LAG-3 (Homo sapiens, UniProt P18627)
# T1 construct: To human PBMCs stimulated with 2 μg/mL of PHA (manufactured by Sigma-Aldrich) for three days; endogenous in cells; host or cells: human PBMCs stimulated with PHA for three days (PHA blasts)
# T1 sequence (P18627 23-525): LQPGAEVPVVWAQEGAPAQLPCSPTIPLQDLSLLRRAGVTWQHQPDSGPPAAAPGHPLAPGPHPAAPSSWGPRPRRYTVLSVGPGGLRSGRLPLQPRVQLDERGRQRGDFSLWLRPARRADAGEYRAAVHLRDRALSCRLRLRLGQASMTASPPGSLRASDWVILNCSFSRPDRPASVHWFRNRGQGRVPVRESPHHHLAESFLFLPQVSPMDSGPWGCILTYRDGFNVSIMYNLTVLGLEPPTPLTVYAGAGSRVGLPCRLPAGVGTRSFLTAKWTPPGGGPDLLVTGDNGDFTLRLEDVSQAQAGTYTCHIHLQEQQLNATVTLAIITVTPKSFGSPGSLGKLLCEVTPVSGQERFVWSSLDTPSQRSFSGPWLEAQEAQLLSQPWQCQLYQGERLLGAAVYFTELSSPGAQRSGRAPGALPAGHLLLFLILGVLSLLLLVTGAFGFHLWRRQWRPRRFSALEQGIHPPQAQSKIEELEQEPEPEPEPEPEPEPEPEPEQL
# T2: immunoglobulin-like domains of human LAG-3 (Homo sapiens, UniProt P18627)
# T2 construct: expressed in transfected cells; host or cells: HEK293T cells, pcDNA3.1 plasmids, transient transfection
# T2 sequence (P18627 263-525): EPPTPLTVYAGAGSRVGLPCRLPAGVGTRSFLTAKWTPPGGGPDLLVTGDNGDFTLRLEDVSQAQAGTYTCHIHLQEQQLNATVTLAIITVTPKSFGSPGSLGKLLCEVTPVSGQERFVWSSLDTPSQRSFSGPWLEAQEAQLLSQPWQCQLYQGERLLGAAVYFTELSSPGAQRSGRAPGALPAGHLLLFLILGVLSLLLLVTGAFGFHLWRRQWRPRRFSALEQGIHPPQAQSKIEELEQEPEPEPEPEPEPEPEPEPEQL
# T3: immunoglobulin-like domains of human LAG-3 (Homo sapiens, UniProt P18627)
# T3 construct: expressed in transfected cells; host or cells: HEK293T cells, pcDNA3.1 plasmids, transient transfection
# T3 sequence (P18627 353-525): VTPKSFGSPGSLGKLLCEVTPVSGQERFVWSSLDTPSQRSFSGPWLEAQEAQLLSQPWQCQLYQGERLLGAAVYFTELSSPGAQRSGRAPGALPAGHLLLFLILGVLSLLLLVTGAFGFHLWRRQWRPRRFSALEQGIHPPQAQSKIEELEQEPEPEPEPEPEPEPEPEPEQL
# B1: rLA225: anti-human LAG-3 rat monoclonal antibody; heavy chain variable region SEQ ID No: 10, light chain variable region SEQ ID No: 12 (antibody, listed as Rattus norvegicus, V domains shown)
# VH: EVQLVESGGGLVQPGRSMKLSCVASGFTFSNYYMAWVRQAPTKGLEWVASISTGGGNTYYRDSVKGRFTISRDNAKSTLYLQMDSLRSEDTATYYCARPPYGYNYGWFTYWGQGTLVTVSS
# VL: DIQMTQSPASLSASLGETVTIECRASEDIHNGLVWYQQKPGKSPQLLIYNANSMHTGVPSRFSGSGSGTQYSLKINSLQSEDVASYFCQQYYNYPRTFGGGTKLELKRA
# B2: rLA1264: anti-human LAG-3 rat monoclonal antibody; heavy chain variable region SEQ ID No: 18, light chain variable region SEQ ID No: 20 (antibody, listed as Rattus norvegicus, V domains shown)
# VH: EVQLVESGGGLVQPGRSLKLSCAASGFTFSSYYMAWVRQAPTKGLEWVAYISNGGYSTYYRDSVKGRFTISRENAKSTLYLQMDSLRSEDTATYYCTITDHSGYRFTYWGQGTLVTVSS
# VL: DIQMTQSPSLLSASVGDRVTLSCKASQSIYNSLAWYQQKLGEAPKLLIYDANSLQTGIPSRFSGSGSGTDFTLTISSLQPEDVATYFCQKYYSGNTFGAGTKLELKRA
# B3: rLA204: anti-human LAG-3 rat monoclonal antibody; heavy chain variable region SEQ ID No: 2, light chain variable region SEQ ID No: 4 (antibody, listed as Rattus norvegicus, V domains shown)
# VH: EVELVESGGGLVQPGRSMKLSCAASGFTFRTYGMAWVRQAPTKGLEWVASISTGGGSTYYRDSVKGRFTISRDNAKSTLYLQMDSLRSEDTATYYCTTDLINYPGIGGFAFWGQGTLVTVSS
# VL: NIVMTQSPKSMSISVGDRVTMNCKASQNVYNNIAWYQQKPGKSPKLLIYYASNRYTGVPDRFTGSGSGTDFTLTIHSVQAEDAAFYYCQRLYNSPPTFGGGTKLELKRA
# B4: rLA869: anti-human LAG-3 rat monoclonal antibody; heavy chain variable region SEQ ID No: 14, light chain variable region SEQ ID No: 16 (antibody, listed as Rattus norvegicus, V domains shown)
# VH: EVQLVESGGGLVQPGRSLKLSCAASGFTYRTYVMAWVRQGPTQGLEWVASISTGGVSTYYRDSVKGRFTISRDNAKNTLYLQMDSLRSEDTATYYCAKDMLNGYNSQGLFDYWGQGVMVTVSS
# VL: NIVMTQSPKSMSISVGDRVTMNCRASQNVDNTIAWYQQKPGQSPKLLIYFASDRYTGVPDRFTGGGYGTDFTLTINSVQAEDAAFYYCQRIYNSPLTFGSGTKLEIRRA
# B5: rLA212: anti-human LAG-3 rat monoclonal antibody; heavy chain variable region SEQ ID No: 6, light chain variable region SEQ ID No: 8 (antibody, listed as Rattus norvegicus, V domains shown)
# VH: EVQLVESGGGLVQPGRSLKLSCAASGFTYRSYVMAWVRQAPTRGLEWVASISTGGGNTYYRDSVKGRFTISRDNAKNTLYLQMDSLRSEDTATYYCAEDMSNSGYGLFDYWGQGVMVTVSS
# VL: NIVMTQSPKSMSISVGDRVTMNCKAGQNVDNNIAWYQKKPGQSPKLLIYYASNRNTGVPDRFTGGGYGTDFTLTINSVQAEDAAFYYCQRISNSPYTFGAGTELELKRA
# Target: T1, human PHA blasts expressing LAG-3
# Experiment: Binding activity to activated human T cells (PHA blasts) by flow cytometry
# Details: mean fluorescence intensity
# Method: It was further confirmed by flow cytometry that the antibody produced by the hybridomas determined to be positive by the Cell-ELISA in Example 1)-3 binds to PHA (phytohemagglutinin) activated human T cells (PHA blasts), a more physiologically relevant cell type expressing LAG-3. To human PBMCs stimulated with 2 μg/mL of PHA (manufactured by Sigma-Aldrich) for three days, was added a hybridoma culture supernatant for suspension, followed by reaction at 4° C. for 30 minutes. After washing with a FACS buffer (PBS, 0.1% BSA, and 0.1% sodium azide), a secondary antibody such as an Anti-Rat IgG PE conjugate (manufactured by Jackson ImmunoResearch Laboratories, Inc.) diluted 200-fold with a FACS buffer comprising a LIVE/DEAD Fixable Dead Cell Stain Kit-near-IR fluorescent reactive dye (manufactured by Invitrogen Corp.) was added thereto for suspension, followed by standing at 4° C. for 30 minutes. After washing with a FACS buffer, the cells were resuspended in PBS containing 1 to 2% paraformaldehyde, followed by detection using a flow cytometer (CantoII: manufactured by Becton, Dickinson and Company or FC500: manufactured by Beckman Coulter Inc.). The data was analyzed using FlowJo (manufactured by Tree Star Inc). After removal of the LIVE/DEAD Fixable Dead Cell Stain Kit-near-IR fluorescent reactive dye-positive dead cells by gating, a histogram of the fluorescence intensity of the living cells was plotted.
# The binding activity of the rat anti-human LAG-3 antibodies rLA204, rLA212, rLA225, rLA869, and rLA1264 purified by the method described in Example 1)-7 to activated human T cells was investigated.
row,Molecule,binding to activated human T cells (PHA blasts)
1,B1,bound to PHA blasts prepared as in vitro activated human T cells in a concentration-dependent manner
2,B2,bound to PHA blasts prepared as in vitro activated human T cells in a concentration-dependent manner
3,B3,bound to PHA blasts prepared as in vitro activated human T cells in a concentration-dependent manner
4,B4,bound to PHA blasts prepared as in vitro activated human T cells in a concentration-dependent manner
5,B5,bound to PHA blasts prepared as in vitro activated human T cells in a concentration-dependent manner

# Target: T2, immunoglobulin-like domains of human LAG-3
# Experiment: Identification of epitope: flow cytometry on HEK293T cells expressing human LAG-3 domain deletion constructs
# Assay type: binding
# Details: FLAG-tagged 263-525, HEK293T cells, 10 μg/mL
# Excerpt: (§1) Based on the fact that the rat anti-LAG-3 antibodies rLA204, rLA212, rLA225, rLA869, and rLA1264 are antibodies developed using a mutant deficient in the 1st and 2nd domains (which will be hereinafter referred to respectively as domains 1 and 2) from the N terminus out of the four immunoglobulin-like domains present in the extracellular region of LAG-3 as an immunogen, in order to reveal which of the remaining 3rd and 4th domains (which will be hereinafter referred to respectively as domains 3 and 4) from the N terminus these antibodies bind to, binding of the obtained rat anti-LAG-3 antibodies to cells expressing domains 3 and 4, or only domain 4, was investigated by flow cytometry.
# (§2) Each expression plasmid (cloned into pcDNA3.1) of either domain 3 and onwards (263-525) or domain 4 and onwards (353-525) of human LAG-3 with a FLAG tag sequence (DYKDDDDK) (SEQ ID NO:87) added to the N terminus was introduced into HEK293T cells using Lipofectamine 2000 (manufactured by Life Technologies Corp.), and the cells were cultured for 1 day and then recovered, to investigate the binding activity of the antibodies by flow cytometry according to the method described in Example 1)-4.
# (§3) In addition to the two types of constructs in FIG. 5A, expression plasmids were used of domain 2 and onwards (amino acid positions 173-525 of the human LAG-3 amino acid sequence in SEQ ID No: 86, FIG. 101) of human LAG-3 with a FLAG tag sequence (DYKDDDDK) (SEQ ID NO:87) added to the N terminus and the full length of human LAG-3 (both were constructed using pcDNA3.1; the nucleotide sequence encoding the amino acid sequence of human LAG-3 is described in SEQ ID No: 85, FIG. 100).
row,binding to cells expressing the construct containing domains 3 and 4 of human LAG-3,Molecule
1,bound,B1
2,bound,B3
3,bound,B5

# System: immunoglobulin-like domains of human LAG-3
# Experiment: as above
# Assay type: binding
# Details: concluded from binding to deletion constructs
# Excerpt: as §1, §2, §3
row,Molecule,immunoglobulin-like domain of LAG-3 bound (epitope)
1,B1,domain 3
2,B2,domain 3
3,B3,domain 3
4,B4,domain 3
5,B5,domain 3

# Target: T3, immunoglobulin-like domains of human LAG-3
# Experiment: as above
# Assay type: binding
# Details: FLAG-tagged 353-525, HEK293T cells, 10 μg/mL
# Excerpt: as §1, §2, §3
row,binding to cells expressing the construct containing only domain 4 of human LAG-3,Molecule
1,none of them bound,B1
2,none of them bound,B3
3,none of them bound,B5
